Experimental data: paper PMC8705818, “Experimental Characterization of the Interaction between the N-Terminal SH3 Domain of Crkl and C3G” (International Journal of Molecular Sciences, 2021)
One block for each molecule: values may come before it. Ends that are not written are not given here. * marks the point of attachment. Dansyl = CN(C)c1cccc2c(S(=O)(=O)*)cccc12

Tests used:
[1] = target: dansyl-C3G277-296 peptide (UniProt Q13905); assay: Stopped-flow fluorescence kinetics (FRET Trp to dansyl). kon from binding, koff from displacement, KD = koff/kon.; settings: pH 7.0, 10 °C, Hepes 50 mM pH 7.0
[2] = target: dansyl-C3G277-296 peptide (UniProt Q13905); assay: Stopped-flow fluorescence kinetics (FRET from Trp164/Trp165 to dansyl; excitation 280 nm, 455 nm cut-off filter). kon from binding experiments, koff from separate displacement experiments, KD = koff/k; settings: 10 °C, 0.5 M NaCl added to all buffers, 50 mM sodium acetate at pH 5.0 and 5.5, 50 mM Bis-Tris at pH 6.0 and 6.5, 50 mM Hepes at pH 7.0 and 7.5, 50 mM Tris-HCl
[3] = target: dansylated C3G_(277–296) peptide; assay: stopped-flow kinetics (FRET, Trp to dansyl); variants, ionic strength series: 0.5 µM dansyl peptide mixed with 2.0-4.5 µM N-SH3 variant; KD = koff/kon; 50 mM Hepes pH 7.5, 0 M NaCl, 10 °C
[4] = target: dansylated C3G_(277–296) peptide; assay: stopped-flow kinetics (FRET, Trp to dansyl); variants, ionic strength series: 0.5 µM dansyl peptide mixed with N-SH3 variant (D138A 2.5-6.0 µM, E140A 3.0-5.0 µM); KD = koff/kon; 50 mM Hepes pH 7.5, 0.1 M NaCl, 10 °C
[5] = target: dansylated C3G_(277–296) peptide; assay: stopped-flow kinetics (FRET, Trp to dansyl); variants, ionic strength series: 0.5 µM dansyl peptide mixed with N-SH3 variant (D138A 2.5-6.0 µM, E140A 3.0-5.5 µM); KD = koff/kon; 50 mM Hepes pH 7.5, 0.05 M NaCl, 10 °C
[6] = target: dansylated C3G_(277–296) peptide; assay: stopped-flow kinetics (FRET, Trp to dansyl); variants, ionic strength series: 0.5 µM dansyl peptide mixed with N-SH3 variant (D138A 2.5-6.0 µM, E140A 3.0-5.5 µM); KD = koff/kon; 50 mM Hepes pH 7.5, 0.15 M NaCl, 10 °C
[7] = target: dansylated C3G_(277–296) peptide; assay: stopped-flow displacement kinetics; preincubated complex of D141A N-SH3 (2 µM) and dansyl-C3G (10 µM) mixed with excess nondansylated C3G (50 µM); Hepes 50 mM pH 7.0 with 20% w/v sucrose
[8] = target: dansylated C3G_(277–296) peptide; assay: stopped-flow kinetics (FRET, Trp to dansyl); pH series: 0.5 µM dansyl peptide mixed with 0.5-5.0 µM N-SH3; koff from displacement; Hepes 50 mM pH 7.5, 0.5 M NaCl, 10 °C
[9] = target: dansylated C3G_(277–296) peptide; assay: stopped-flow kinetics (FRET, Trp to dansyl); pH series: 0.5 µM dansyl peptide mixed with 1.5-6.0 µM N-SH3; koff from displacement; Hepes 50 mM pH 7.0, 0.5 M NaCl, 10 °C
[10] = target: dansylated C3G_(277–296) peptide; assay: stopped-flow kinetics (FRET, Trp to dansyl); pH series: 0.5 µM dansyl peptide mixed with 0.5-5.0 µM N-SH3; koff from displacement; Bis-Tris 50 mM pH 6.5, 0.5 M NaCl, 10 °C
[11] = target: dansylated C3G_(277–296) peptide; assay: stopped-flow kinetics (FRET, Trp to dansyl); pH series: 0.5 µM dansyl peptide mixed with 1.0-5.0 µM N-SH3; koff from displacement; Bis-Tris 50 mM pH 6.0, 0.5 M NaCl, 10 °C
[12] = target: dansylated C3G_(277–296) peptide; assay: stopped-flow kinetics (FRET, Trp to dansyl); pH series: 0.5 µM dansyl peptide mixed with 1.5-6.0 µM N-SH3; koff from displacement; Tris-HCl 50 mM pH 8.0, 0.5 M NaCl, 10 °C
[13] = target: dansylated C3G_(277–296) peptide; assay: stopped-flow kinetics (FRET, Trp to dansyl); pH series: 0.5 µM dansyl peptide mixed with 1.5-6.0 µM N-SH3; koff from displacement; Tris-HCl 50 mM pH 8.5, 0.5 M NaCl, 10 °C
[14] = target: dansylated C3G_(277–296) peptide; assay: stopped-flow kinetics (FRET, Trp to dansyl); pH series: 0.5 µM dansyl peptide mixed with 1.5-6.0 µM N-SH3; koff from displacement; Tris-HCl 50 mM pH 9.0, 0.5 M NaCl, 10 °C
[15] = target: dansylated C3G_(277–296) peptide; assay: stopped-flow kinetics (FRET, Trp to dansyl); pH series: 0.5 µM dansyl peptide mixed with 2.0-7.0 µM N-SH3; koff from displacement; 50 mM sodium acetate pH 5.5, 0.5 M NaCl, 10 °C
[16] = target: dansylated C3G_(277–296) peptide; assay: stopped-flow kinetics (FRET, Trp to dansyl); pH series: 0.5 µM dansyl peptide mixed with 4.0-8.0 µM N-SH3; koff from displacement; 50 mM sodium acetate pH 5.0, 0.5 M NaCl, 10 °C
[17] = target: dansylated C3G_(277–296) peptide; assay: stopped-flow kinetics (FRET, Trp to dansyl); ionic strength series: 0.5 µM dansyl peptide mixed with 0.5-5 µM N-SH3; koff from displacement; KD = koff/kon; Hepes 50 mM pH 7.0, 1 M NaCl, 10 °C
[18] = target: dansylated C3G_(277–296) peptide; assay: stopped-flow kinetics (FRET, Trp to dansyl); ionic strength series: 0.5 µM dansyl peptide mixed with 0.5-5 µM N-SH3; koff from displacement; KD = koff/kon; Hepes 50 mM pH 7.0, 0.3 M NaCl, 10 °C
[19] = target: dansylated C3G_(277–296) peptide; assay: stopped-flow kinetics (FRET, Trp to dansyl); ionic strength series: 0.5 µM dansyl peptide mixed with 0.5-5 µM N-SH3; koff from displacement; KD = koff/kon; Hepes 50 mM pH 7.0, 0.5 M NaCl, 10 °C
[20] = target: dansylated C3G_(277–296) peptide; assay: stopped-flow kinetics (FRET, Trp to dansyl); ionic strength series: 0.5 µM dansyl peptide mixed with 0.5-5 µM N-SH3; koff from displacement; KD = koff/kon; Hepes 50 mM pH 7.0, 0.15 M NaCl, 10 °C
[21] = target: dansylated C3G_(277–296) peptide; assay: stopped-flow kinetics (FRET, Trp to dansyl); ionic strength series: 0.5 µM dansyl peptide mixed with 1-5 µM N-SH3; koff from displacement with excess nondansylated peptide; KD = koff/kon; Hepes 50 mM pH 7.0, 0 M NaCl, 10 °C
[22] = target: N-SH3 domain of Crkl, D141A variant; assay: other fluorescence titration; equilibrium: 1 µM N-SH3 D141A constant, increasing dansyl-C3G; quenching of Trp fluorescence at 350 nm (excitation 280 nm); hyperbolic fit; 50 mM Hepes pH 7.0, 10 °C

- koff ([1]; 0 M NaCl added): 12 s⁻¹
- kon ([1]; 0 M NaCl added): 1.3e+08 M⁻¹ s⁻¹
- koff ([1]; 0.15 M NaCl): 23 s⁻¹
- kon ([1]; 0.15 M NaCl): 9.6e+07 M⁻¹ s⁻¹
- koff ([1]; 0.3 M NaCl): 32 s⁻¹
- kon ([1]; 0.3 M NaCl): 8.3e+07 M⁻¹ s⁻¹
- koff ([1]; 0.5 M NaCl): 34 s⁻¹
- kon ([1]; 0.5 M NaCl): 5.1e+07 M⁻¹ s⁻¹
- koff ([1]; 1.0 M NaCl): 51 s⁻¹
- kon ([1]; 1.0 M NaCl): 6.8e+07 M⁻¹ s⁻¹
- koff ([2]; pH 5.0): 257 s⁻¹
- kon ([2]; pH 5.0): 4.4e+07 M⁻¹ s⁻¹
- koff ([2]; pH 5.5): 81 s⁻¹
- kon ([2]; pH 5.5): 3.7e+07 M⁻¹ s⁻¹
- koff ([2]; pH 6.0): 78 s⁻¹
- kon ([2]; pH 6.0): 1.5e+07 M⁻¹ s⁻¹
- koff ([2]; pH 6.5): 65 s⁻¹
- kon ([2]; pH 6.5): 6.5e+07 M⁻¹ s⁻¹
- koff ([2]; pH 7.0): 42 s⁻¹
- kon ([2]; pH 7.0): 5.2e+07 M⁻¹ s⁻¹
- koff ([2]; pH 7.5): 34 s⁻¹
- kon ([2]; pH 7.5): 5.1e+07 M⁻¹ s⁻¹
- koff ([2]; pH 8.0): 46 s⁻¹
- kon ([2]; pH 8.0): 5.6e+07 M⁻¹ s⁻¹
- koff ([2]; pH 8.5): 40 s⁻¹
- kon ([2]; pH 8.5): 6.8e+07 M⁻¹ s⁻¹
- koff ([2]; pH 9.0): 39 s⁻¹
- kon ([2]; pH 9.0): 3.9e+07 M⁻¹ s⁻¹
Molecule: Crkl N-terminal SH3 domain (N-SH3), wild type

- Kd [3]: 900 nM
- koff [3]: 139 s⁻¹
- kon [3]: 1.58e+08 M⁻¹ s⁻¹
- Kd [4]: 3800 nM
- koff [4]: 183 s⁻¹
- kon [4]: 4.8e+07 M⁻¹ s⁻¹
- Kd [5]: 2600 nM
- koff [5]: 212 s⁻¹
- kon [5]: 8.1e+07 M⁻¹ s⁻¹
- Kd [6]: 22000 nM
- koff [6]: 254 s⁻¹
- kon [6]: 1.2e+07 M⁻¹ s⁻¹
Molecule: N-SH3 domain of Crkl, D138A variant (domain or fragment)

- koff [7]: 800 s⁻¹
Molecule: N-SH3 domain of Crkl, D141A variant (domain or fragment)

- Kd [3]: 3300 nM
- koff [3]: 254 s⁻¹
- kon [3]: 7.8e+07 M⁻¹ s⁻¹
- Kd [4]: 3900 nM
- koff [4]: 302 s⁻¹
- kon [4]: 7.7e+07 M⁻¹ s⁻¹
- Kd [5]: 3700 nM
- koff [5]: 330 s⁻¹
- kon [5]: 8.9e+07 M⁻¹ s⁻¹
- Kd [6]: 4200 nM
- koff [6]: 339 s⁻¹
- kon [6]: 8.1e+07 M⁻¹ s⁻¹
Molecule: N-SH3 domain of Crkl, E140A variant (domain or fragment)

- Kd [8]: 700 nM
- koff [8]: 34 s⁻¹
- kon [8]: 5.1e+07 M⁻¹ s⁻¹
- Kd [9]: 800 nM
- koff [9]: 42 s⁻¹
- kon [9]: 5.2e+07 M⁻¹ s⁻¹
- Kd [10]: 1000 nM
- koff [10]: 65 s⁻¹
- kon [10]: 6.5e+07 M⁻¹ s⁻¹
- Kd [11]: 5400 nM
- koff [11]: 78 s⁻¹
- kon [11]: 1.5e+07 M⁻¹ s⁻¹
- Kd [12]: 800 nM
- koff [12]: 46 s⁻¹
- kon [12]: 5.6e+07 M⁻¹ s⁻¹
- Kd [13]: 600 nM
- koff [13]: 40 s⁻¹
- kon [13]: 6.8e+07 M⁻¹ s⁻¹
- Kd [14]: 1000 nM
- koff [14]: 39 s⁻¹
- kon [14]: 3.9e+07 M⁻¹ s⁻¹
- Kd [15]: 2200 nM
- koff [15]: 81 s⁻¹
- kon [15]: 3.7e+07 M⁻¹ s⁻¹
- Kd [16]: 5900 nM
- koff [16]: 257 s⁻¹
- kon [16]: 4.4e+07 M⁻¹ s⁻¹
- Kd [17]: 750 nM
- koff [17]: 51 s⁻¹
- kon [17]: 6.8e+07 M⁻¹ s⁻¹
- Kd [18]: 390 nM
- koff [18]: 32 s⁻¹
- kon [18]: 8.3e+07 M⁻¹ s⁻¹
- Kd [19]: 660 nM
- koff [19]: 34 s⁻¹
- kon [19]: 5.1e+07 M⁻¹ s⁻¹
- Kd [20]: 240 nM
- koff [20]: 23 s⁻¹
- kon [20]: 9.6e+07 M⁻¹ s⁻¹
- Kd [21]: 90 nM
- koff [21]: 12 s⁻¹
- kon [21]: 1.3e+08 M⁻¹ s⁻¹
Molecule: N-terminal SH3 domain of Crkl, wild type (domain or fragment)

- Kd [22]: 1070 nM
B1: dansylated C3G_(277–296) peptide (peptide)
peptide: Dansyl-VVDNSPPPALPPKKRQSAPS
